According to the RNAGym collection of RNA variant scans (doi:10.1073/pnas.2313332121):
Fewer inactive variants are shown than the library holds.

B1: TPR 5TU (parent)
chain: GGAUCUUCUCGAUCUAACAAAAAAGACAAAUCUGCCACAAAGCUUGAGAGCAUCUUCGGAUGCAGAGGCGGCAGCCUUCGGUGGCGCGAUAGCGCCAACGUUCUCAACUAUGACACGCAAAACGCGUGCUCCGUUGAAUGGAGUUUAUCAUG

Variants of: B1
Test: polymerase ribozyme fitness, log enrichment relative to wild type (log ratio); higher = more active; in vitro selection for triplet polymerase activity
Summary of the method: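 After PCR construction and transcription, each subunit's mutant library from a heterodimeric triplet polymerase ribozyme was annealed with a biotinylated primer, the partner subunit and triplets. Incubation was frozen, at −7 °C, and extended constructs were gel-excised, bound to streptavidin beads and amplified by RT-PCR, in one selection round done in triplicate. Fitness is the logarithm of a genotype's enrichment divided by that of the wild type, from inverse-variance-weighted replicate averages of Illumina-sequenced inputs and outputs. The base of the logarithm is 2, and genotypes needed ≥10 input reads and ≥1 read per output.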

Polymerase ribozyme fitness (log ratio), -4.09:
GGAUCUUCGCGAUCUAACUAAAAAGACAAAUCUGCCACAAAGCUUGAGAGCAUCUUCGGAUGCAGAGGCGGCAGCCUUCGGUGGCGCGAUAGCGCCAACGUUCUCAACUAUGACACGCAAAACGCGUGCUCCGUUGAAUGGAGUUUAUCAUG [U9G A19U]

Polymerase ribozyme fitness (log ratio), -4.02:
GGAUCUUCGCGAUAUAACAAAAAAGACAAAUCUGCCACAAAGCUUGAGAGCAUCUUCGGAUGCAGAGGCGGCAGCCUUCGGUGGUGCGAUAGCGCCAACGUUCUCAACUAUGACACGCAAAACGCGUGCUCCGUUGAAUGGAGUUUAUCAUG [U9G C14A C85U]

Polymerase ribozyme fitness (log ratio), -4.11:
GGAUCUUCGCGAUCUAACAAAAAAGACAAAUCUGCCACAAAGCUUGAGAGCAUCUUCGGAUGCAGAGGCGGCGGCCUUCGGUGGCGCGAUAGCGCCAACGUUCUCAACUAUGACACGCAAAACGCGUGCUCCGUUGAAUGGAGUUUAUCAUG [U9G A73G]

Polymerase ribozyme fitness (log ratio), ≤ -4.2:
GGAUCUUCGCUAUCUAACAAAAAAGACAAAUCUGCCACAAAGCAUGAGACCAUCUUCGGAUGCAGAGGCGGCAGCCUUCGGUGGCGAGAUAGCGCCAACGUUCUGAACUAUGACACGCAAAACGCGUGCUCCGUUGAAUGGAGUUUAUCAUG [U9G G11U U44A G50C C87A C105G]
GGAUCUUCGCGAUCUAACAAAAAAGAGGAAUCUGCCACAACGCUUGAGAGCAUCUUUGGAUGCAGAGGCGGCAGCCUUCGGGGGCGCGAUACCGCCAACGUUCUCAACUAUGACACGCAAAACGCGUGCUCCGUUGAAUUGAGUUUAUCAUG [U9G C27G A28G A41C C57U U82G G92C G140U]
GGAUCUUCGCGAUUUAACAAAAAAGACACAUCUGACACAAAGCUUGAGAGCAUCUUCGGAUGCAGAGGCGGCAGCCUUCGGUGGCGUGAUAACUCCAUCGUUCUCAACUAUGACACGCAAAACGCGUGCUCCGUUGUAUGGAGUUUAUCAUG [U9G C14U A29C C35A C87U G92A G94U A98U A137U]
GGAUCUUCGCGAUCUAACAAAAAAGACAAAUCUGCCACAAAGCUUGAGAGCAUCUGCGGAUGCAGAGGCGGCAGCCUUCGGUGUCGAGAGAGCGCCAACGUUCUCAACGAUGACACGCAAAACGCGUGCCCCGUUGAAAGGAGUUUAUCAUG [U9G U56G G84U C87A U90G U109G U130C U139A]
GGAUCUUCGCGAUCUAACAAAAAAGACAAAUCUGCCACAAAGCUUGAGAGCAUCUUCGGAUGCAGAGGCGGCAGCCUUCGGUGGCGCGUUAGCGACAACGUUCUCAACUAUGACACGCAAAACGCGUGCUCCGUUGAAUGGAGUUUAUCAUG [U9G A89U C95A]
GGAUCUUCGCGAUGUAACAAAAAGGACAAAUCUGCCACAAAGCUUGAGAGCAUCAUCGGAUGCAGAGGCGGCAGCCUUCGGUGGCGCGAUAGCGCCAACGUUCUCAACUAUGACACGCAAAACGCGUGCUCCGUUGAAAGGAGUUUAUCAUG [U9G C14G A24G U55A U139A]
GGAUCUUCGCGAUCUAACAAAGAAGACAAAGCUGCCACAAGGCUUGAGAGCAUCUUCGGAUGCAGAGGCGGCAGCCUUCGGUGGCGCGAUUGUGCCAACGUUCUCAACUAUGACACGCAAAACGCGUGCUCCGUGGAAUGGAGUUUAUCAUG [U9G A22G U31G A41G A91U C93U U135G]
GGAUCUUCGCGAUCUAACAAAAAAGACAAAUCGUCCACAAAGCUUGAGAGCAUCUUCGGAUGCAGAGGCGGCAGCCUUCGGUGGCGCGAUAACGCCAACGUUCUGAACUAUGACACGCAAAACGCGUGCUCUGUUGAACGGAGUUUAUCAUG [U9G U33G G34U G92A C105G C132U U139C]
GGAUCUUCGCGAUCUAACAAAAAUGACAAAUCUGUCACAAAGCUUGAGAGCAUCUUCGGCUGCAGAGGCGACAGCCUUCGGUGGCGCGAUAGCGCCAACGUUCUCAACUAUGACACGCAAAACGCGUACUCCGUUGAAUGGAUUUUAUCGUG [U9G A24U C35U A60C G71A G128A G143U A150G]
GGAUCUUCGCGACCUAACAAAAAUGACAAAUCUGCCACAAAGCUUGAGCGGCUCUUCGGAUGCAGAGGCGGCCGCCUUCGGUGGCGCGAUAGCGCCAACGUUCACAAGUAUGACACGCAAAACGCGUGCUCCGUUGAAUGGAGUUUAUCAUG [U9G U13C A24U A49C C51G A52C A73C U104A C108G]
GGAUCUUCGCGAUCUAACAAAAAAGAUAAAUCUGCCACAAAGCUUGAGAGCAUCAUCGGAUGCAGAGGCGGCAGCCUUCGGUGGGGCGAUAGCGGCAACGUUCUCAACUAUGACACGCAAAAGGCGUGCUCCGUUGAAUUGAGUUUAUCAUG [U9G C27U U55A C85G C95G C123G G140U]
GGAUCUUCGCGAUCUAACAAAAAAGACAAAUCUGCCACAAAGCUUGAGAGCAUCUUCGGAUGCAGAGGCGGCAGCCUUCGGUGGCGCGACAGCGCCAACGUUCUCAACUAUGACACGCAAAACGCGUGCUCCGUUGAAUGGAGUUUAGCAUG [U9G U90C U148G]
GGAUCUUCGCGAUCUAACAAAAAAGAUAAAUCUGCCACAAUGCUUCAGAGCAUCUUCGGAUGCAGAGGCGGCAGCCUUCGGUGGCGCGAGAGCGCGAACGUUCUCAACUAUGACACGCCAACCGCGUGCUCCGUUGAAUGGAGUUUAUCAUG [U9G C27U A41U G46C U90G C96G A119C A122C]
GGAUCUUCGCGAUCUUACAAAAAAGACAAAUAUGCCACAAAGCUUGAGAGCAUCUUCGGAUGCAGAGGCGGCAGCCUUCGGUGGGGCGAUAGCGCCAACGUUCUCAACUAUGACACGCAAAACGCGUGCUCCGUCGAAUGGAGUUUAUCAUU [U9G A16U C32A C85G U135C G152U]
GGAUCUUCGCGAUCUAACAAAAAAGACAAAUCUGCCACAAAGCUUGAGAGCAUCUUCGGAUGCAGAGGCGGCAGGAUUCGGUGGGGCGAUAGCGCCAACGUUCUCAACUAUGACACGCAAAACGCGUGCUCCGUUGAAUGGAGUUUAUCAUG [U9G C75G C76A C85G]
GGAUCUUCGCGAUCUAACAAAAAAGACAAAUCUGCCACAAAGCUUGAGAGCAUCUUCGGAUGCAGAGGCGGCAGUCUUCGGUGGCGCGAUAGCGCCAACGUUCUCAACUAUGACACGCAAAACGCGUGCUCCGUUGAAUGGAGUUUAUCGUG [U9G C75U A150G]
